Where no end group is shown, it is not given here. [ ]: non-standard residue; d: D form.
Legend:
Type in all cases: biochemical
tau full-length protein = biological target: T1, tau full-length protein (Homo sapiens, UniProt P10636); experiment: Dynamic light scattering (DLS) measurements of tau aggregation with arachidonic acid; details: for Mass Day 1 / Mass Day 8 / Particle size Day 1 / Particle size Day 8: DLS, 1 μg/ml tau full-length protein, 100 μM arachidonic acid (AA), peptide at ratio 1:10; for Effect on aggregation of tau in DLS (in words): tau full-length protein, 100 μM arachidonic acid, peptide ratio 1:10
T1 construct: Since this is not possible for the full-length tau protein (441 amino acids)
T1 sequence (P10636 1-441 isoform P10636-8): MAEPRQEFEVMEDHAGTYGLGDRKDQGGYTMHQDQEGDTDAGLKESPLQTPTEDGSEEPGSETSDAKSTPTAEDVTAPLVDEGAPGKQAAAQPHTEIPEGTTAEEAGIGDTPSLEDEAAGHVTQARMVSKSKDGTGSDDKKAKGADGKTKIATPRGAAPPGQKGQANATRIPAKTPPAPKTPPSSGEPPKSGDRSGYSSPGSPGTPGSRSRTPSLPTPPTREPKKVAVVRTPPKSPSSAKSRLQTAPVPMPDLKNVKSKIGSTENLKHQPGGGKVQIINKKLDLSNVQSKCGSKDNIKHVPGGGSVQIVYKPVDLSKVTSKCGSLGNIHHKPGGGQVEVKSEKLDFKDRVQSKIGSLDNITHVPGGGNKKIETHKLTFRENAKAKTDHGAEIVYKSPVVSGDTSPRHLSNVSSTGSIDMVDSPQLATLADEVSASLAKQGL
Experimental: For this purpose. 1 μg/ml tau full-length protein was analyzed using 100 μM arachidonic acid and the respective peptide at a ratio of 1:10. Tau without peptide and without the addition of arachidonic acid was measured for control purposes. […] DLS was carried out with an acquisition time of 5 seconds for 3 minutes at room temperature.

tau fibrils = tau fibrils (Homo sapiens, UniProt P10636); experiment: Effect of peptides on existing tau fibrils
Chain of tau fibrils (P10636 1-441 isoform P10636-8): as above

PHF-6 = PHF-6 (Homo sapiens, UniProt P10636); experiment: ThT aggregation assay of PHF-6 (relative fibril content); details: 25 μM PHF-6, PHF-6:peptide 1:1 and 1:10, two hours of incubation
Experimental: (§1) In mirror image phage display selections, the selection rounds are carried out against a D-enantiomer as the target, which must be generated synthetically. Since this is not possible for the full-length tau protein (441 amino acids), the selections were carried out against the D-enantiomer of a 6-mer tau fragment (PHF-6), which can be found in tau repeats R2 and R3 and, according to various studies, forms the core of the neurofibrillary tangles (von Bergen, M., Assembly of τ protein into Alzheimer paired helical filaments depends on a local sequence motif (306VQIVYK311) forming β structure PNAS, 1999. 97(10): p. 5129-5134; Miller, M., Synergistic Interactions between Repeats in Tau Protein and Aβ Amyloids May Be Responsible for Accelerated Aggregation via Polymorphic States. 5172-5181, 2011. 50(23): p. 5172-5181). […]
The concentration of PHF-6 was 25 μM; the peptides were measured at a ratio of 1:1 and 1:10 (PHF-6:peptide) and as controls individually in a 25 μM concentration (not shown). The fluorescence of 25 μM PHF-6 after two hours of incubation was set at 100%, and the values and standard deviations of the remaining incubations are indicated as percentages of this maximal value.

full-length tau protein = full-length tau protein (Homo sapiens, UniProt P10636); experiment: ThT aggregation assay of tau with 100 μM arachidonic acid (relative fibril content); details: 5 μM tau, tau:peptide 1:1 and 1:10, 24 hours
Chain of full-length tau protein (P10636 1-441 isoform P10636-8): as above
Experimental: as §1, with “5172-5181). Since aggregated material is to serve as the target for the selection, and monomeric tau protein has important physiological functions and must not be inhibited in vivo, only fribriilary material was used for the selection.” for “5172-5181).”
The concentration of tau was 5 μM; the peptides were added at a ratio of 1:1 and 1:10 (tau:peptide). The fluorescence of 5 μM tau after 24 hours of incubation was set at 100%, and the values and standard deviations of the remaining incubations are indicated as percentages of this maximal value.

Question: Which results are given for “TTSLQMRLYYPP (not fully specified (some residues)) [TL28, label not defined in the text]”?
Answer: Mass Day 1 (tau full-length protein): ≧99%; Mass Day 8 (tau full-length protein): 100%

Question: aptilrlhslga was tested. Which “Mass Day 1” value (tau full-length protein) did it give?
Answer: ≧99%

Question: What about the “Particle size Day 1” value (tau full-length protein) of the same substance?
Answer: 1-fold

Question: What about the “Mass Day 8” value (tau full-length protein) of the same substance?
Answer: ≧98%

Question: What about the “Particle size Day 8” value (tau full-length protein) of the same substance?
Answer: 1-fold

Question: What about the “Effect on existing tau fibrils” value (tau fibrils) of the same substance?
Answer: dissolve existing tau fibrils

Question: Which “Mass Day 1” value (tau full-length protein) does the source give for “kntpqhrklrls ([dK][dN][dT][dP][dQ][dH][dR][dK][dL][dR][dL][dS]) [D-peptide from selections against D-PHF-6]” here?
Answer: ≧99%

Question: What about the “Particle size Day 1” value (tau full-length protein) of the same substance?
Answer: 1-fold

Question: What about the “Mass Day 8” value (tau full-length protein) of the same substance?
Answer: ≧99%

Question: What about the “Particle size Day 8” value (tau full-length protein) of the same substance?
Answer: 1-fold

Question: What about the “Effect on existing tau fibrils” value (tau fibrils) of the same substance?
Answer: dissolve existing tau fibrils

Question: For “ppyylxmqlstt ([dP][dP][dY][dY][dL][dR][dM][dQ][dL][dS][dT][dT]) [TD28ri, retro-inverso peptide of …]”, which “Mass Day 1” value (tau full-length protein) is on record?
Answer: 100%

Question: What about the “Particle size Day 1” value (tau full-length protein) of the same substance?
Answer: 55-fold

Question: What about the “Mass Day 8” value (tau full-length protein) of the same substance?
Answer: 100%

Question: What about the “Particle size Day 8” value (tau full-length protein) of the same substance?
Answer: 44-fold

Question: What about the “Effect on aggregation of tau in DLS (in words)” value (from here on “Effect on aggregation of tau”) (tau full-length protein) of the same substance?
Answer: formation of very large aggregates

Question: And the “Effect on existing tau fibrils” value (tau fibrils)?
Answer: convert tau fibrils into large amorphous aggregates

Question: For “tlkivw ([dT][dL][dK][dI][dV][dW]) [Sievers, reference compound]”, which “Inhibition of aggregation / fibril formation of PHF-6” value (PHF-6) is on record?
Answer: inhibited the aggregation of PHF-6 to a similar degree as that of the peptides we developed

Question: And the “Inhibition of fibrillization / aggregation of the full-length tau protein” value (full-length tau protein)?
Answer: not the aggregation of the full-length tau protein

Question: What about the “Inhibition of fibrillization / aggregation of the full-length tau protein” value (full-length tau protein; listed as peptide selected by Sievers) of the same substance?
Answer: in most approaches showed no effect at all

Question: What about the “Mass Day 1” value (tau full-length protein) of the same substance?
Answer: 100%

Question: And the “Mass Day 8” value (tau full-length protein)?
Answer: ≧98%

Question: What about the “Effect on aggregation of tau” value (tau full-length protein) of the same substance?
Answer: showed no effect on the aggregation of the full-length tau protein

Question: For “ttslqmrlyypp ([dT][dT][dS][dL][dQ][dM][dR][dL][dY][dY][dP][dP]) [TD28]”, which “Mass Day 1” value (tau full-length protein) is on record?
Answer: 100%

Question: What about the “Particle size Day 1” value (tau full-length protein) of the same substance?
Answer: 42-fold

Question: What about the “Mass Day 8” value (tau full-length protein) of the same substance?
Answer: 100%

Question: What about the “Particle size Day 8” value (tau full-length protein) of the same substance?
Answer: 48-fold

Question: And the “Effect on aggregation of tau” value (tau full-length protein)?
Answer: formation of very large aggregates

Question: And the “Effect on existing tau fibrils” value (tau fibrils)?
Answer: convert tau fibrils into large amorphous aggregates

From patent US9580469B2, “Peptides for the treatment and early diagnosis of Alzheimer's disease and other tauopathies” (priority 2012, dated 2017)
